Results reported in PMC5756042, “Molecular Defects of the Disease-Causing Human Arrestin-1 C147F Mutant” (Investigative Ophthalmology & Visual Science, 2018).
Numbering of substitutions follows the chain as printed. Numbers in names are those of the source.

B1: human arrestin-1 C147F mutant (natural protein, UniProt P10523 1-405, looked up)
chain: MAASGKTSKSEPNHVIFKKISRDKSVTIYLGNRDYIDHVSQVQPVDGVVLVDPDLVKGKKVYVTLTCAFRYGQEDIDVIGLTFRRDLYFSRVQVYPPVGAASTPTKLQESLLKKLGSNTYPFLLTFPDYLPCSVMLQPAPQDSGKSFGVDFEVKAFATDSTDAEEDKIPKKSSVRLLIRKVQHAPLEMGPQPRAEAAWQFFMSDKPLHLAVSLNKEIYFHGEPIPVTVTVTNNTEKTVKKIKAFVEQVANVVLYSSDYYVKPVAMEEAQEKVPPNSTLTKTLTLLPLLANNRERRGIALDGKIKHEDTNLASSTIIKEGIDRTVLGILVSYQIKVKLTVSGFLGELTSSEVATEVPFRLMHPQPEDPAKESYQDANLVFEEFARHNLKDAGEAEEGKRDKNDVDE
modifications: labeled with 14C-Leu and 3H-Leu
notes: human arrestin-1 with the disease-causing C147F mutation (dominant retinitis pigmentosa in humans), transcription construct in pGEM2; The mutation occurs in human patients; here it was introduced into the transcription construct by PCR; also called CF; source: in vitro translated (rabbit reticulocyte lysate), radiolabelled
B2: human arrestin-1 C147I mutant (natural protein, UniProt P10523 1-405, looked up)
chain: B1 chain with F147I
modifications: labeled with 14C-Leu and 3H-Leu
notes: source: in vitro translated (rabbit reticulocyte lysate), radiolabelled
B3: human arrestin-1 C147L mutant (natural protein, UniProt P10523 1-405, looked up)
chain: B1 chain with F147L
modifications: labeled with 14C-Leu and 3H-Leu
notes: as for B2

These binders were tested against T1, light-activated unphosphorylated rhodopsin (bovine, UniProt P02699 1-348) (assay: radioligand binding; direct binding assay: 1 nM radiolabelled arrestin-1 (50 fmol) with 0.3 μg P-Rh* or Rh* (0.22 μM) in 50 μL of 50 mM Tris-HCl pH 7.4, 100 mM potassium acetate, 1 mM EDTA, 1 mM dithiothreitol, 5 minutes at 37°C under room light; bound and free separated at 4°C on Sepharose 2B-CL; scintillation counting; nonspecific binding subtracted). Conditions: one partner purified.
T1 construct: source: purified from cow eyes; unphosphorylated; rhodopsin-containing membranes
T1 sequence (P02699 whole entry): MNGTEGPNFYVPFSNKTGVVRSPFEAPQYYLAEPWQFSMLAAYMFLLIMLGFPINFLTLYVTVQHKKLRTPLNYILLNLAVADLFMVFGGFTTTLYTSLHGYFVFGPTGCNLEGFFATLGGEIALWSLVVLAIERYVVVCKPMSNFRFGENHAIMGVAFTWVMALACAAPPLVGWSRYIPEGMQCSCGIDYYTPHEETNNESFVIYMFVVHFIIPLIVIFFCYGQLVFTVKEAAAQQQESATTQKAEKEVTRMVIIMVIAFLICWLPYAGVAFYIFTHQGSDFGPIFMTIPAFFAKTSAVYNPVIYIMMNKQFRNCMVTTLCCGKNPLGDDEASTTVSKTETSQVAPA

Fold increase of Rh* binding against WT, > 2 fold:
B1
B2
B3
